Assay results from patent US20140087995A1 (published 2014).
Values belong to the binder of their own block, whether it stands above or below them. Numbered stars: 1 amine (or outer) side, 2 acyl side, 3 side chain; on linkers, the order of the positions; unused ones are H or OH. Bridge positions count the residues as written; N and C are the ends. Side chains are listed from the residue outwards. Ends that are not written are not given here. * marks the point of attachment. C20 diacid = O=C(O)CCCCCCCCCCCCCCCCCCC(=O)*; γGlu = O=C(O)[C@H](CCC(=O)[*:2])N[*:1]; AEEA = NCCOCCOCC(=O)O

Tests used:
rat calcitonin receptor [1] = molecular target: T1, rat calcitonin receptor (rat, UniProt P32214 25-516); experiment: SPA competition vs 125I-calcitonin, membranes of BHK cells with rat calcitonin receptor (Assay VIII)
T1 construct: whole, on cells; Membranes prepared from transiently transfected BHK tk'ts 13 cells (Assay VIII); also called rCTR; rCT
T1 sequence (looked up): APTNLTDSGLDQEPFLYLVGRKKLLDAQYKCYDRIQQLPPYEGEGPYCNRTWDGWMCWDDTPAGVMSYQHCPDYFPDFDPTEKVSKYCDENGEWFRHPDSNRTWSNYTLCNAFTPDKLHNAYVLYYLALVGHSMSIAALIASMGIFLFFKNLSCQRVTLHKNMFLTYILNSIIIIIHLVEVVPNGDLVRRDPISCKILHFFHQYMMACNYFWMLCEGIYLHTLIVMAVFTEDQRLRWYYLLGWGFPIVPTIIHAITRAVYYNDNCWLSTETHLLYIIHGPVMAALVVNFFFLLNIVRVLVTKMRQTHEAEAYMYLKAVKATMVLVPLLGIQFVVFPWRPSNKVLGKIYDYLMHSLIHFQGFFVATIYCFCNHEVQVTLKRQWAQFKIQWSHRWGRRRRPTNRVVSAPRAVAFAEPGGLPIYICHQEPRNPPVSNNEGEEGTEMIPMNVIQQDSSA

rat calcitonin receptor [2] = molecular target: T1, rat calcitonin receptor; experiment: ratio of binding IC50s: rat calcitonin receptor / rat amylin receptor (reference)
[3] = molecular target: T2, human calcitonin receptor (human, UniProt P30988 25-474); experiment: ratio of binding IC50s: human calcitonin receptor / human amylin receptor (reference)
T2 construct: whole, on cells; Membranes prepared from a stably transfected BHK cell line (Assay VII); also called hCTR; hCT
T2 sequence (looked up): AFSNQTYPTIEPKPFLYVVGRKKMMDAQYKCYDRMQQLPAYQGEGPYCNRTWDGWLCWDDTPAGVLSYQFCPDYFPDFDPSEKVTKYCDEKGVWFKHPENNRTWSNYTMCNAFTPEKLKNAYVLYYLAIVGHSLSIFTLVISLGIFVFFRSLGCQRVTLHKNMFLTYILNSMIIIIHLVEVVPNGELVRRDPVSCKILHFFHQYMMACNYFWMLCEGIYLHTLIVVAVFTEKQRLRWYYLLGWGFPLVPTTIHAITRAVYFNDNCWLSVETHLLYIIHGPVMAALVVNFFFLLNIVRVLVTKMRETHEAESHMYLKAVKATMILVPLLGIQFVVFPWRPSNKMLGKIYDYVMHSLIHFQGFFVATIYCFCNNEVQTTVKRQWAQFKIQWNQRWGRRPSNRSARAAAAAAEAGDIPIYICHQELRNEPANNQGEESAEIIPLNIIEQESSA
How it was run: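 Competition binding by SPA uses membrane preparations (35 ng/μL final) in pH 7.4 Hepes buffer with 1 mM CaCl2 and 5 mM MgCl₂. Incubation lasts 120 min at 25° C, and IC₅₀ comes from one-site fitting.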

[4] = molecular target: T3, rat amylin receptor (rat calcitonin receptor + rat RAMP 3) (rat, UniProt P32214 25-516; Q9JJ73 23-147); experiment: SPA competition vs 125I-rat amylin, membranes of BHK cells with rat calcitonin receptor + rat RAMP3 (Assay VI)
T3 construct: whole, on cells; Membranes prepared from transiently transfected BHK tk'ts 13 cells (Assay VI); also called rAmylin-R; rAmylin
T3 sequence (looked up) 1: T1 sequence (looked up)
T3 sequence (looked up) 2: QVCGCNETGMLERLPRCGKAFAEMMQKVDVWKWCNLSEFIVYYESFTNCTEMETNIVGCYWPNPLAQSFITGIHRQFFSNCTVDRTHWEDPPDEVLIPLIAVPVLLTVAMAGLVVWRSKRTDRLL

IC50 (rat calcitonin receptor [1]): 6.25 nM | Ratio rCT/rAmylin binding (rat calcitonin receptor [2]): 77.2 | Ratio hCT/hAmylin binding [3]: 51.8 | IC50 [4]: 0.081 nM
B1: N^ε1-[2-[2-[2-[[(4S)-4-carboxy-4-(19-carboxynonadecanoylamino)butanoyl]amino]ethoxy]ethoxy]acetyl]-[Arg17,Pro21,Pro27,Pro28,Pro34]-h-amylin (peptide)
peptide: K([AEEA-γGlu-C20 diacid])CNTATCATQRLANFLRHSSPNFGAIPPSTNVGPNTY-NH2
modifications: disulfide 2-7; N-terminus assumed
SMILES: CC[C@H](C)[C@H](NC(=O)[C@H](C)NC(=O)CNC(=O)[C@H](Cc1ccccc1)NC(=O)[C@H](CC(N)=O)NC(=O)[C@@H]1CCCN1C(=O)[C@H](CO)NC(=O)[C@H](CO)NC(=O)[C@H](Cc1c[nH]cn1)NC(=O)[C@H](CCCNC(=N)N)NC(=O)[C@H](CC(C)C)NC(=O)[C@H](Cc1ccccc1)NC(=O)[C@H](CC(N)=O)NC(=O)[C@H](C)NC(=O)[C@H](CC(C)C)NC(=O)[C@H](CCCNC(=N)N)NC(=O)[C@H](CCC(N)=O)NC(=O)[C@@H](NC(=O)[C@H](C)NC(=O)[C@@H]1CSSC[C@H](NC(=O)[C@@H](N)CCCCNC(=O)COCCOCCNC(=O)CC[C@H](NC(=O)CCCCCCCCCCCCCCCCCCC(=O)O)C(=O)O)C(=O)N[C@@H](CC(N)=O)C(=O)N[C@@H]([C@@H](C)O)C(=O)N[C@@H](C)C(=O)N[C@@H]([C@@H](C)O)C(=O)N1)[C@@H](C)O)C(=O)N1CCC[C@H]1C(=O)N1CCC[C@H]1C(=O)N[C@@H](CO)C(=O)N[C@H](C(=O)N[C@@H](CC(N)=O)C(=O)N[C@H](C(=O)NCC(=O)N1CCC[C@H]1C(=O)N[C@@H](CC(N)=O)C(=O)N[C@H](C(=O)N[C@@H](Cc1ccc(O)cc1)C(N)=O)[C@@H](C)O)C(C)C)[C@@H](C)O
notes: Analogue of human amylin; also called compound 55

IC50 (rat calcitonin receptor [1]): 8.79 nM | Ratio rCT/rAmylin binding (rat calcitonin receptor [2]): 179 | Ratio hCT/hAmylin binding [3]: 146 | IC50 [4]: 0.049 nM
B2: N^ε1-[2-[2-[2-[[(4S)-4-carboxy-4-(19-carboxynonadecanoylamino)butanoyl]amino]ethoxy]ethoxy]acetyl]-[Arg17,Pro21,Pro27,Pro29,Pro31]-h-amylin (peptide)
peptide: K([AEEA-γGlu-C20 diacid])CNTATCATQRLANFLRHSSPNFGAIPSPTPVGSNTY-NH2
modifications: disulfide 2-7; N-terminus assumed
SMILES: CC[C@H](C)[C@H](NC(=O)[C@H](C)NC(=O)CNC(=O)[C@H](Cc1ccccc1)NC(=O)[C@H](CC(N)=O)NC(=O)[C@@H]1CCCN1C(=O)[C@H](CO)NC(=O)[C@H](CO)NC(=O)[C@H](Cc1c[nH]cn1)NC(=O)[C@H](CCCNC(=N)N)NC(=O)[C@H](CC(C)C)NC(=O)[C@H](Cc1ccccc1)NC(=O)[C@H](CC(N)=O)NC(=O)[C@H](C)NC(=O)[C@H](CC(C)C)NC(=O)[C@H](CCCNC(=N)N)NC(=O)[C@H](CCC(N)=O)NC(=O)[C@@H](NC(=O)[C@H](C)NC(=O)[C@@H]1CSSC[C@H](NC(=O)[C@@H](N)CCCCNC(=O)COCCOCCNC(=O)CC[C@H](NC(=O)CCCCCCCCCCCCCCCCCCC(=O)O)C(=O)O)C(=O)N[C@@H](CC(N)=O)C(=O)N[C@@H]([C@@H](C)O)C(=O)N[C@@H](C)C(=O)N[C@@H]([C@@H](C)O)C(=O)N1)[C@@H](C)O)C(=O)N1CCC[C@H]1C(=O)N[C@@H](CO)C(=O)N1CCC[C@H]1C(=O)N[C@H](C(=O)N1CCC[C@H]1C(=O)N[C@H](C(=O)NCC(=O)N[C@@H](CO)C(=O)N[C@@H](CC(N)=O)C(=O)N[C@H](C(=O)N[C@@H](Cc1ccc(O)cc1)C(N)=O)[C@@H](C)O)C(C)C)[C@@H](C)O
notes: Analogue of human amylin; also called compound 54
